According to publication PMC7684278:

Legend:
[1] = biological target: Cas7 of the Desulfovibrio vulgaris type I-C Cascade (Desulfovibrio vulgaris); assay: cryo-EM structure; purified type I-C Cascade with its crRNA, 0.3 mg/mL in 20 mM HEPES-NaOH pH 7.5, 100 mM KCl, 1 mM TCEP; graphene oxide grids; 3.1 A (3.13 A) reconstruction
[2] = biological target: Cas7 of the Desulfovibrio vulgaris type I-C Cascade (Desulfovibrio vulgaris); assay: native MS; purified type I-C Cascade with its crRNA, about 6 uM, in 100 mM ammonium acetate; positive mode; in-source trapping at -120 and -300 V to release subunits and subcomplexes
[3] = biological target: Cas8c, large subunit of the Desulfovibrio vulgaris type I-C Cascade (Desulfovibrio vulgaris); assay: as above

stoichiometry N [1]	stoichiometry N [2]	stoichiometry N [3]	Substance
7	7		Cas7 of the Desulfovibrio vulgaris type I-C Cascade (natural protein)
		2	non-canonical small subunit (SSU) Cas11c of the Desulfovibrio vulgaris type I-C Cascade (domain or fragment)
